Experimental findings from article PMC6910828 (2019) are described below.

A word on the Kd: it is the free concentration of one partner at which half of the binding sites on the other are occupied at equilibrium, for simple one-to-one binding. The low end stands for a tighter complex, the high end for a looser complex.

Test [1] has as its target Cy3-labelled, prenylated Cdc42 G12V, GTPγS-bound (Cy3 at the N-terminus (Cy3 N-t labeled LPETGG peptide joined by sortase); geranylgeranyl by in vitro prenylation (C-terminal prenyl moiety); GTPγS-bound). Description: GTPγS-bound; extraction from supported lipid bilayers.
For test [2], the target named is Cy3-labelled, prenylated Rho G14V, GTPγS-bound (Cy3 at the N-terminus (Cy3 N-t labeled LPETGG peptide joined by sortase); geranylgeranyl by in vitro prenylation (C-terminal prenyl moiety); GTPγS-bound). The description is as above.
Test [3] addresses Cy3-labelled, prenylated Rho, wild type, GDP-bound (Cy3 at the N-terminus (Cy3 N-t labeled LPETGG peptide joined by sortase); geranylgeranyl by in vitro prenylation (C-terminal prenyl moiety); GDP-bound). Description: GDP-bound; extraction from supported lipid bilayers.
Test [4] addresses Cy3-labelled, prenylated Cdc42, wild type, GDP-bound (Cy3 at the N-terminus (Cy3 N-t labeled LPETGG peptide joined by sortase); geranylgeranyl by in vitro prenylation (C-terminal prenyl moiety); GDP-bound). The test is described as above.
For test [5], the target named is Cy3-labelled, prenylated Cdc42 Q61L, GTP-bound (Cy3 at the N-terminus (Cy3 N-t labeled LPETGG peptide joined by sortase); geranylgeranyl by in vitro prenylation (C-terminal prenyl moiety); GTP-bound). As to the kind of experiment: GTP-bound; extraction from supported lipid bilayers.
In test [6] the target is Cy3-labelled, prenylated Rho Q63L, GTP-bound (Cy3 at the N-terminus (Cy3 N-t labeled LPETGG peptide joined by sortase); geranylgeranyl by in vitro prenylation (C-terminal prenyl moiety); GTP-bound). The test is described as above.
Cy3-labelled, prenylated Rho Q63L, GTP-bound (Cy3 at the N-terminus (Cy3 N-t labeled LPETGG peptide joined by sortase); geranylgeranyl by in vitro prenylation (C-terminal prenyl moiety); GTP-bound), sequence (chain, as listed by the source Q63L): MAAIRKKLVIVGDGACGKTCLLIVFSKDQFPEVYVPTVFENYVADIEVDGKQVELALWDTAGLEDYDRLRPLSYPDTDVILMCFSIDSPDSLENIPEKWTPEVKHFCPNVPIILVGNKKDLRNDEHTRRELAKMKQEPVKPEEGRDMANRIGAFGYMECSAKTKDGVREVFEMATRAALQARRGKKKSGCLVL

Cy3-labelled, prenylated Rho, wild type, GDP-bound (Cy3 at the N-terminus (Cy3 N-t labeled LPETGG peptide joined by sortase); geranylgeranyl by in vitro prenylation (C-terminal prenyl moiety); GDP-bound), sequence (chain, as listed by the source): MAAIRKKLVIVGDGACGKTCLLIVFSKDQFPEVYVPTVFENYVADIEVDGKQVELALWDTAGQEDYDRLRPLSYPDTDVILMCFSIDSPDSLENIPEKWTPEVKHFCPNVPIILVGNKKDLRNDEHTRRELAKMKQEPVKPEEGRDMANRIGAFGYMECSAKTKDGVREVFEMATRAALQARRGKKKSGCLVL
Cy3-labelled, prenylated Cdc42, wild type, GDP-bound (Cy3 at the N-terminus (Cy3 N-t labeled LPETGG peptide joined by sortase); geranylgeranyl by in vitro prenylation (C-terminal prenyl moiety); GDP-bound), sequence (P60953 whole entry): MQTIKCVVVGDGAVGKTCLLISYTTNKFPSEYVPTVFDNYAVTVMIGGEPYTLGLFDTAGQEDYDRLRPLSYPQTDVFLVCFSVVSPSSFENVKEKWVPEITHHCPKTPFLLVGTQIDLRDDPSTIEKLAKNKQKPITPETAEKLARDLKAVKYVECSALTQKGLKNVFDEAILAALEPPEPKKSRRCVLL
Cy3-labelled, prenylated Rho G14V, GTPγS-bound (Cy3 at the N-terminus (Cy3 N-t labeled LPETGG peptide joined by sortase); geranylgeranyl by in vitro prenylation (C-terminal prenyl moiety); GTPγS-bound), sequence (chain, as listed by the source G14V): as the sequence (chain, as listed by the source Q63L) above, with G14V, L63Q counted along it
Cy3-labelled, prenylated Cdc42 Q61L, GTP-bound (Cy3 at the N-terminus (Cy3 N-t labeled LPETGG peptide joined by sortase); geranylgeranyl by in vitro prenylation (C-terminal prenyl moiety); GTP-bound), sequence (chain, as listed by the source Q61L): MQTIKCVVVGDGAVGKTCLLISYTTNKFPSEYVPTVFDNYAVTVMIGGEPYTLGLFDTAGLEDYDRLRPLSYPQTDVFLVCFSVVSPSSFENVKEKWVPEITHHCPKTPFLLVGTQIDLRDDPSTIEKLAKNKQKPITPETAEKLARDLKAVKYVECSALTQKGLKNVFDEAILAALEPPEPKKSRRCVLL
Cy3-labelled, prenylated Cdc42 G12V, GTPγS-bound (Cy3 at the N-terminus (Cy3 N-t labeled LPETGG peptide joined by sortase); geranylgeranyl by in vitro prenylation (C-terminal prenyl moiety); GTPγS-bound), sequence (chain, as listed by the source G12V): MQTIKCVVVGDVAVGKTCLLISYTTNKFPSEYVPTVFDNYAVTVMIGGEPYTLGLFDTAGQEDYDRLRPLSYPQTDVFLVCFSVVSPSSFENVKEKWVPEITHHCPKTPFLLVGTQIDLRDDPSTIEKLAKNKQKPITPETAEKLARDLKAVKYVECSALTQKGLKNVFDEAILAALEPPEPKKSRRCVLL

B1: Xenopus laevis RhoGDI, wild type (natural protein)
chain: MAEHEPTPEQLHQIAAENQDEEHSVDYKPPAQKSIKEIQELDQDDESLRKYKEALLGSLPSSADPEASNVVVTKLTLLCDCAPGPLELDLTGDLEKFKKQSFTLKEGVEYRIKISFKVNKEIVSGLRYQQQTYRKGVRLDRTRYMVGSYGPRVDEYEFLTPIEEAPNGMLARGCYNIKSLFTDDDKSNHLSWEWNLHIKNDWKS
In the case of B1, the Kd in test [1] was 4.95 µM; in test [2] it was 5.43 µM; in test [3], 5.77 µM; in test [4] it was 3.41 µM; in test [5] it was 14.4 µM; in test [6], 19.6 µM.
